{"source": "paper doi:10.1101/2025.03.15.643416", "binders": {"B1": {"name": "T/P (RNA template/DNA primer) (DNA:RNA)", "DNA": "TGGAATCAGGTGTCGCACTCTG", "RNA": "AACAGAGUGCGACACCUGAUUCCAU"}}, "target": "MMLVRT-WT (Moloney murine leukemia virus, UniProt P03355 660-1330)", "experiment": "DSF thermal shift", "data": [{"binder": "B1", "values": [{"measurement": "binding result", "result": "binds"}]}]}
